Experimental data: FireProtDB (doi:10.1111/febs.14143)
Where “and” joins values, the source holds several entries; their conditions need not be identical. Equal values may be shown once.

B1: Guanine nucleotide-binding protein G(i) subunit alpha-3, P08753 (parent)
chain: MGCTLSAEDKAAVERSKMIDRNLREDGEKAAKEVKLLLLGAGESGKSTIVKQMKIIHEDGYSEDECKQYKVVVYSNTIQSIIAIIRAMGRLKIDFGEAARADDARQLFVLAGSAEEGVMTSELAGVIKRLWRDGGVQACFSRSREYQLNDSASYYLNDLDRISQTNYIPTQQDVLRTRVKTTGIVETHFTFKELYFKMFDVGGQRSERKKWIHCFEGVTAIIFCVALSDYDLVLAEDEEMNRMHESMKLFDSICNNKWFTDTSIILFLNKKDLFEEKIKRSPLTICYPEYTGSNTYEEAAAYIQCQFEDLNRRKDTKEVYTHFTCATDTKNVQFVFDAVTDVIIKNNLKECGLY

Variants of: B1
Details: Rattus norvegicus; pH 7.5; Thermal; DSC; HEPES; NaCl MgCl2 50000 2000; transition: 2; reversible: yes; structure 6MHE; whole UniProt chain shown

| Variant | Tm [°C] |
| --- | --- |
| MGCTLSAEDKAAVERSKMIDRNLREDGEKAAKEVKLLLLGAGESGKSTIVKQMKIIHEDGYSEDECKQYKVVVYSNTIQSIIAIIRAMGRLKIDFGEAARADDARQLFVLAGSAEEGVMTSELAGVIKRLWRDGGVQACFSRSREYQLNDSASYYLNDLDRISQTNYIPTQQDVLRTRVKTTGIVETHFTFKELYFKMFDVGGQRSERKKWIHCFEGVTAIIFCVALSDYDLVLAEDEEMNRMHESMKLFDSICNNKWFTDTSIILFLNKKDLFEEKIKRSPLTICYPEYTGSNTYEEAAAYIQCQFEDLNRRKDTKEVYTHFTCATDAKNVQFVFDAVTDVIIKNNLKECGLY [T329A] | 65 |

Same assay, conditions: Rattus norvegicus; pH 7.5; Thermal; Fluorescence; HEPES; NaCl MgCl2 50000 2000; transition: 2; reversible: yes; structure 6MHE; whole UniProt chain shown

| Variant | Tm |
| --- | --- |
| MGCTLSAEDKAAVERSKMIDRNLREDGEKAAKEVKLLLLGAGESGKSTIVKQMKIIHEDGYSEDECKQYKVVVYSNTIQSIIAIIRAMGRLKIDFGEAARADDARQLFVLAGSAEEGVMTSELAGVIKRLWRDGGVQACFSRSREYQLNDSASYYLNDLDRISQTNYIPTQQDVLRTRVKTTGIVETHFTFKELYFKMFDVGAQRSERKKWIHCFEGVTAIIFCVALSDYDLVLAEDEEMNRMHESMKLFDSICNNKWFTDTSIILFLNKKDLFEEKIKRSPLTICYPEYTGSNTYEEAAAYIQCQFEDLNRRKDTKEVYTHFTCATDTKNVQFVFDAVTDVIIKNNLKECGLY [G203A] | 57.5 °C |
| MGCTLSAEDKAAVERSKMIDRNLREDGEKAAKEVKLLLLGAGESGKSTIVKQMKIIHEDGYSEDECKQYKVVVYSNTIQSIIAIIRAMGRLKIDFGEAARADDARQLFVLAGSAEEGVMTSELAGVIKRLWRDGGVQACFSRSREYQLNDSASYYLNDLDRISQTNYIPTQQDVLRTRVKTTGIVETHFTFKELYFKMFDVGGQRSERKKWIHCFEGVTAIIFCVALSDYDLVLAEDEEMNRMHESMKLFDSICNNKWFTDTSIILFLNKKDLFEEKIKRSPLTICYPEYTGSNTYEEAAAYIQCQFEDLNRRKDTKEVYTHFTCSTDTKNVQFVFDAVTDVIIKNNLKECGLY [A326S] | 64 °C and 62.5 °C |
